How the values were obtained:
[1] = target: T1, complex of HEL peptide and MHC class II molecule (I-A^k) on LK35.2 cells (Mus musculus, UniProt P01910+P06343); test: Immunization of mice with HEL peptides; serum IgG1 binding to HEL peptide-pulsed LK35.2 cells (flow cytometry); assay type: in vivo, mice (B10.A strain); details: 30 nmol peptide with CFA subcutaneously; serum two weeks after administration
T1 construct: LK35.2 cells expressing I-A^k (the MHC class II molecule); endogenous in cells; host or cells: LK35.2 cells
Experimental: 30 nmol of the HEL peptide 41-70 or the HEL peptide 48-61 was mixed with a complete Freund's adjuvant. Each of the thus-obtained mixture was administered subcutaneously to mice (B10.A strain). Two weeks after the administration, whole blood was collected from each mouse, and serum was collected from the whole blood.
LK35.2 cells were pulsed with the HEL peptide in the same manner as in the item (2) in Example 1B, except that the HEL peptide 41-70 or the HEL peptide 48-61 was added instead of the HEL protein, the HEL peptide 41-70, and the HEL peptide 48-61. The cultured LK35.2 cells were collected from the wells. Thereafter, the collected LK35.2 cells were used in antibody detection to be described below.
Flow cytometry analysis was performed in the same manner as in the item (3) in Example 1A, except that the LK35.2 cells in the item (2) in Example 2A were used instead of the 293 T cells and that an Alexa®647-labeled anti-mouse IgG1 antibody (catalog number: A21240, Invitrogen) was used instead of the APC-labeled anti-mouse IgG (H+L) antibody (peptide added groups). As Control 1, the flow cytometry analysis was performed in the same manner, except that serums collected from non-immunized mice were used instead of the serums of the HEL peptide-immunized mice. As Control 2, the flow cytometry analysis was performed in the same manner, except that the HEL peptide was not added (peptide non-added groups).

[2] = target: T2, 3A9 TCR / complex of HEL antigen and I-A^k on LK35.2 cells (Mus musculus, UniProt P01910+P06343); test: Inhibition of TCR recognition by antibody: binding of soluble single-chain 3A9 TCR to antigen-pulsed LK35.2 cells after reaction with serum; details: cells reacted with serums of HEL-immunized mice, diluted 10-fold
T2 construct: LK35.2 cells expressing I-A^k (the MHC class II molecule); endogenous in cells; host or cells: LK35.2 cells (I-A^k); the 3A9 scTCR-Fc is culture supernatant of transfected 293T cells
Description: From 3A9 T cell hybridomas (obtained from Laboratory of Vaccine Materials, National Institutes of Biomedical Innovation) expressing a TCR that recognizes a complex of a peptide consisting of the amino acid sequence of SEQ ID NO: 1 (the T-cell epitope) and I-A^k (the MHC class II molecule), the TCR was cloned. Specifically, from cDNA derived from the 3A9 T cell hybridomas, a polynucleotide encoding the following α-chain and β-chain of 3A9 TCR linked by a GGGGS linker was cloned into a pME18S vector. Thus, a 3A9 TCR expression vector was produced. The vector was designed so that the Fc domain of human IgG is added to the C terminus of an expressed protein. Thus, by introducing the expression vector to a host, a soluble single-chain TCR composed of 3A9 TCR and Fc bound thereto is expressed (3A9 scTCR-Fc).
Next, the 293 T cells were cultured for 96 hours under the same 30 culture conditions as in the item (1) in Example 1A, except that the 3A9 TCR expression vector was introduced instead of the I-A^k c expression vector and the I-A^k f expression vector. After the culture, the supernatant was collected, and the collected supernatant was used as the soluble single-chain TCR.
LK35.2 cells expressing I-A^k (the MHC class II molecule) were seeded in a 24-well plate at a density of 1×10^5 cells/1 ml/well. Next, the HEL protein was added to the wells at a concentration of 200 μg/ml, or the HEL peptide 41-70 or the HEL peptide 48-61 was added to the wells at a concentration of 20 μmol/l. The LK35.2 cells were pulsed with the HEL protein or the HEL peptide by culturing the HEL protein-added group for another 48 hours and the HEL peptide added groups for another 24 hours under the above-described culture conditions. The cultured LK35.2 cells were collected from the wells. Thereafter, the collected LK35.2 cells were used in inhibition of TCR recognition by an antibody to be described below.
Serum collected from each of the HEL protein-immunized mice was diluted 10-fold with HBSS to obtain a diluted serum. Next, 10 μl of the diluted serum was added to the LK35.2 cells obtained in the above item (2) to cause a reaction. Further, a dimer of 20 μl of the supernatant obtained in the above item (1) and 10 μl of an APC-labeled anti-human IgG Fc antibody (code number: 109-136-098, Jackson ImmunoResearch) diluted 100-fold was formed beforehand, and the LK35.2 cells after the reaction were reacted with the dimer. Then, the LK35.2 cells were analyzed by flow cytometry. As Control 1, the flow cytometry analysis was performed in the same manner, except that serums collected from non-immunized mice were used instead of the serums of the HEL protein-immunized mice. […]

T1 sequence (P01910 24-256): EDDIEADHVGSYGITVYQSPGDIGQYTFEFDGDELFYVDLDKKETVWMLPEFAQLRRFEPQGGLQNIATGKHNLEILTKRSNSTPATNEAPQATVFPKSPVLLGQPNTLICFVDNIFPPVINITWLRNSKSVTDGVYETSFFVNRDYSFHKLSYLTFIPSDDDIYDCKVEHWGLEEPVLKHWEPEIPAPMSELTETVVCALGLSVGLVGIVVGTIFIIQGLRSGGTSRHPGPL
T1 sequence (P06343 28-263): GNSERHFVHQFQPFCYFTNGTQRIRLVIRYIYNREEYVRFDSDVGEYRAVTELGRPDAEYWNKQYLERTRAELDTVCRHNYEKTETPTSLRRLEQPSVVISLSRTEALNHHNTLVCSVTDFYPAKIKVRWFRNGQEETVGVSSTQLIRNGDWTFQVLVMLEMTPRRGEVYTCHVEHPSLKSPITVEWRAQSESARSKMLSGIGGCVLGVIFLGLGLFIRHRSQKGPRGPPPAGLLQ
T2 sequence (P01910 24-256): as the sequence (P01910 24-256) above
T2 sequence (P06343 28-263): as the sequence (P06343 28-263) above

IgG1 binding of serum of peptide-immunized mice to LK35.2 cells pulsed with HEL peptide 41-70 [1]	IgG1 binding of serum of peptide-immunized mice to LK35.2 cells pulsed with HEL peptide 48-61 [1]	binding of soluble single-chain TCR to LK35.2 cells pulsed with the antigen [2]	Sequence
not observed	not observed	observed	DGSTDYGILQINSR (Gallus gallus domesticus) [HEL peptide 48-61, reference compound]
observed	not observed	not observed	QATNRNTDGSTDYGILQINSRWWCNDGRTP (Gallus gallus domesticus) [HEL peptide 41-70]
